± gives the half width of the 95% confidence interval.
Assay: folding stability dG unfold (combined trypsin and chymotrypsin); higher = more stable
In short: (§1)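 K50 was inferred by Bayesian fitting of sequencing counts obtained after protease digestion of designed mini-proteins. Unfolding free energy was derived by comparison with a sequence-predicted unfolded-state K50 and a shared folded-state K50, for each protease or both combined. The mini-proteins were under 80 residues, had no cysteine, were carried in a PA-tagged cDNA display construct, and were kept only if AlphaFold2 dimer inter-PAE exceeded 15.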

Sequence | folding stability dG unfold [kcal/mol]
SAGGSAPIKIKTADGKTITVNAKDLSLELLKKADKVIITKPDGKKIELPAGAKIKKGDTVTIKIVKSAGGSA [r15_733_TrROS_Hall] | -0.336 ± 0.33
SAGGGMSGKAISEEEIEALIKEEAEKRGLKIEIKEITRPPGTVTVTVKITEGDSVTEKTIDFPILPEPSAGG [r13_652_JUSTAS] | 1.59 ± 0.06
SALLENGGIFISINLEWDPEYNWIRIKRFTIYWNGKVIATQPQWIPVPPPPPPPPPEREYNPNDPDNNKSAG [r14_571_TrROS] | 4.56 ± 0.16
SAGTEEELVERAKELARELAEELGVEAEAEVTVDPLPDVLVVNLTVRLRLPGGETVELPLTLTFPREFLSAG [r5_609_TrMRF] | 3.08 ± 0.05
SAGGSAGGSAGGDNLMIMIEIEPVKTETRMDPDGKMETRTEYRIKIEIIPPPNPDDPENNSAGGSAGGSAGG [r7_523_TrROS] | 2.28 ± 0.17
SAGAMKITMPEDISVSPSGGATVTITVEFPDKDAVYTVPVTFPDVKSVEEVLARAEEVGKEFAEELKKKSAG [r5_940_JUSTAS] | 0.73 ± 0.099
SAGGSAGGSAGKKKLVVVVDPEEPGRVRIYRDGKVIEMSLEELKKLGIDEVVSVEELLAKSAGGSAGGSAGG [r17_88_TrROS_Hall] | 1.96 ± 0.09
SAGDPRLRVLVVDLEVEGLEELREFVEEHPDVEVLPRPDGRVLLRRVLLVEVEEPEGEEDPDGPTLHPDSAG [r5_129_TrMRF] | 1.26 ± 0.13
SAGGSAPGVTLVSSTSSTSTLPDGTTKSTTTTTYKSPTGTYTTTTTTTVDTSKGTTTPTTTVTPVSSAGGSA [r2_185_JUSTAS] | 0.692 ± 0.14
SAGGMTLLKVRIYIPSEPKPIEVELFTDGDPEKAEEAVRELVEELGYPDAKVEVELLEVDPSDPRFLGSAGG [r13_682_TrMRF] | 3.57 ± 0.051
SAGGSAGMPSPVLLDVTIANPDGTTSTVTAPYASPEVAEAYVRENYPDAEVTYDPATGRVSVNVPSSAGGSA [r15_313_JUSTAS] | 2.2 ± 0.054
SMIKPDEVVEKIEFTFPDGVAGDTRTFPVPEGSVIVYIDLGEPVYVMEILEDGSVKIEPVPEEVAKELAKSA [r9_1144_TrMRF] | 0.3 ± 0.12
MEEIRDLPGIKWQPIERDGDRYYWMFTIPPEQFKNNGKPPVIVMAEFEPNGKWRITPWIRPWLRKLGIEPVS [r1_256_TrROS] | 1.92 ± 0.091
SAGGITIEWERNPDGYPNIKIQIRAPNGKKVAKLPIQFDPNDGGMTKLDLKKLLKEINLPPNVEVEFISAGG [r13_479_TrROS] | 1.34 ± 0.13
SAGGERKVKIEVMWNPDDPNYYMISVKFPGQERQFMIDPNDPERIIEFLEDLLGPGYKVDDIEIHPFRSAGG [r13_519_TrROS] | 1.67 ± 0.051
SAGGSAGGSAGGMVIVTFPDGSVREVEVLETEPDGTVVVAPPDRPVETLSGAGLTLTPVPSAGGSAGGSAGG [r7_823_JUSTAS] | 0.59 ± 0.07
SAGGSAGGSMPAGVLVTVTITITKPGKPETLDELDVTVAEGDLDALEEEFAEKYPGLEVTVVRSAGGSAGGS [r12_21_JUSTAS] | 1.6 ± 0.1
SAGGSAGGSAGGMKYTIKVTTTYPDGTVTEYTFPSSVSKEEIIKELPSDVVDITFTETASSAGGSAGGSAGG [r7_288_JUSTAS] | 2.26 ± 0.04
SAGGEDELRPITPEELKALFDRLAAAHGLESEILEVEEPEDVVIVTARIRHGDTVLEVTVAFPVAKDPSAGG [r13_652_TrMRF] | 2.91 ± 0.15
SAGGSPIKPITFEFPNIKVTVYRMPNKYIMVHIEFRENGEPYYLMITFKLDPDNKLKATSIGPMPPSAGGSA [r2_171_TrROS] | 4.01 ± 0.093
SAGGSSSASNISTNPTPLPEESVTVTASSDGVITVTITDPNGVPTTYTYNIPSGSIEEAIAEAISSSAGGSA [r2_298_JUSTAS] | 1.97 ± 0.094

Assay: folding stability dG unfold from trypsin proteolysis; higher = more stable
In short: as §1

Sequence | folding stability dG unfold [kcal/mol]
SELAEEAAKRAREAFAEEHPGWDVLSVEVEVEKDPNNDVVTVTVKLTLRRESPEPREEVLEEEVTLTFPLKS [r1_181_JUSTAS] | 2.14 ± 0.05
SAGGSAGGEDPNFTPPVKVYYLDLEIEVKPNEIEKLKEEFPDLEAEYEKLGDTYKVKLRIPVPVSAGGSAGG [r6_685_TrMRF] | 1.51 ± 0.077
SMTVSATAVPFGDRLVVTVTVTVDPTLFPDRPPGPAVWERVARELARELGIDSVTLAPLPDDTFVALFDDSA [r9_883_TrMRF] | 2.41 ± 0.069
SAGGSAGGSKKKIKITVEKVDEEKGYYYVTIEIYDEETGELVEKKTIVAPSKEEALKALKELLSAGGSAGGS [r12_26_TrROS_Hall] | 4.41 ± 0.32
SAGGSIEEILKAIPDAEKYEIDREKGIAYVTKKNTLYIVTVPRTSLPSPNGVLEPVSPISIKELPLESAGGS [r16_65_JUSTAS] | 0.128 ± 0.047
SAGGSAGGSASAEIVPLTLTFPVKFKKDPNGKTKEKTVEVKIELYVIRDPNGNLYTIAKISLSAGGSAGGSA [r18_284_TrMRF] | 3.01 ± 0.14
SAGGGTEIEYNPETGEIIVKVNPLIPYPFEPGSETIPLPFEGDPEAAEQEIRDLIEEHPDASFDIKPSSAGG [r13_284_TrMRF] | 0.638 ± 0.085
SAGGSAGGSAGSMKTLVTTETSTVPGTTTTVTTTTTTTYDPTSSETTTTTTPVTNPAPAASAGGSAGGSAGG [r17_309_JUSTAS] | -0.827 ± 0.28
SAGGMTTTVELELEDPVNLGVPVRVEATVTYEKDPNGNPVAKAEITTTYPDGKEEKTTIPVSELKGLGSAGG [r13_787_JUSTAS] | 0.294 ± 0.059
SAGGSAGGSAGGDGEDGKPKPEPKIKIKIEVESVRNPNGFLIVTYRIPALGIWITIIINSAGGSAGGSAGGS [r10_160_TrROS] | 3.03 ± 0.15
SAPPNVWVSRTDPATGAVHAEDIPFPDGATAETVPDPATGTVAQSSDGPPAVLEEVRAALPPDASIEPASAG [r14_252_JUSTAS] | -0.555 ± 0.15
SAGGPVTFEAPLEELLKALPPELVRHASVEPLGEGERRFIATVELEDRRIEAYSDPERPGRVLVTLHFSAGG [r13_942_TrMRF] | 0.332 ± 0.11
SAGGSAGGSAGGAPTIRVELRHPNGERIELEFPADADVIFVPEDYEITRIEIVPADDPASAGGSAGGSAGGS [r10_571_TrMRF] | 1.51 ± 0.062
SAGGSMKVFVFEVKVEVEVKLDKDGNLTVEIKKVEVKPVKKIPLSEEELEKLREAKKKGLTLEEILSAGGSA [r2_327_TrROS_Hall] | 2.07 ± 0.11
SAGGMMKIRIEVENPKGEKKEIELSEEELERIKEALKEGKVLTEEELKKLIELAKEKGYKVKIVEIESAGGS [r8_159_TrROS_Hall] | 0.447 ± 0.077
SAGLFITVEANPNNGTMRITLYRMEPRKDGDGPKMDIEPIAEIEVPMESPEEARDKAKDKAKNLLDKFNSAG [r5_956_TrROS] | 1.06 ± 0.064
SAGGEEKEKLREAIRAALDEAIKEGKKIKKIVIVASPEKKEEIAKLLEEEGLLENLEIEVVSPEELKSAGGS [r16_164_TrROS_Hall] | 1.74 ± 0.072
SAGGSAGGSAGGKPYVIVPVTVRFTIDIPKDHPLLKELDINPEDVKIEFEFSFLGEVPASAGGSAGGSAGGS [r10_82_TrMRF] | 2.66 ± 0.096
SAGGSAGGMEEVLALLKELGLEVKSVDIKSPDKVIVYIKPKDEKKLEELKKAVPKSLVDEIGLESAGGSAGG [r6_84_JUSTAS] | -0.0936 ± 0.083
SLPNRPLVPFELELRLPRFEVRVRLYRLPDGSYLLVAEIRFPNGLTARAEFVLDPVTGRIYLVRVEVRPESA [r9_795_TrMRF] | 3.82 ± 0.041
SAGSSVSVSYDPNNPDKMTITITDPANGTQVSAVTAPVYKRPDGTIVVPLTITFPASGKVTTKTFTIPASAG [r5_610_JUSTAS] | 1.22 ± 0.019

Sequence | folding stability dG unfold [kcal/mol]
SAGGSAPIKIKTADGKTITVNAKDLSLELLKKADKVIITKPDGKKIELPAGAKIKKGDTVTIKIVKSAGGSA [r15_733_TrROS_Hall] | 0.153 ± 0.11
SAGGGMSGKAISEEEIEALIKEEAEKRGLKIEIKEITRPPGTVTVTVKITEGDSVTEKTIDFPILPEPSAGG [r13_652_JUSTAS] | 1.54 ± 0.039
SALLENGGIFISINLEWDPEYNWIRIKRFTIYWNGKVIATQPQWIPVPPPPPPPPPEREYNPNDPDNNKSAG [r14_571_TrROS] | 3.19 ± 0.19
SAGTEEELVERAKELARELAEELGVEAEAEVTVDPLPDVLVVNLTVRLRLPGGETVELPLTLTFPREFLSAG [r5_609_TrMRF] | 2.71 ± 0.095
SAGGSAGGSAGGDNLMIMIEIEPVKTETRMDPDGKMETRTEYRIKIEIIPPPNPDDPENNSAGGSAGGSAGG [r7_523_TrROS] | 1.55 ± 0.11
SAGAMKITMPEDISVSPSGGATVTITVEFPDKDAVYTVPVTFPDVKSVEEVLARAEEVGKEFAEELKKKSAG [r5_940_JUSTAS] | 0.484 ± 0.046
SAGGSAGGSAGKKKLVVVVDPEEPGRVRIYRDGKVIEMSLEELKKLGIDEVVSVEELLAKSAGGSAGGSAGG [r17_88_TrROS_Hall] | 1.03 ± 0.04
SAGDPRLRVLVVDLEVEGLEELREFVEEHPDVEVLPRPDGRVLLRRVLLVEVEEPEGEEDPDGPTLHPDSAG [r5_129_TrMRF] | 0.966 ± 0.11
SAGGSAPGVTLVSSTSSTSTLPDGTTKSTTTTTYKSPTGTYTTTTTTTVDTSKGTTTPTTTVTPVSSAGGSA [r2_185_JUSTAS] | 0.645 ± 0.064
SAGGMTLLKVRIYIPSEPKPIEVELFTDGDPEKAEEAVRELVEELGYPDAKVEVELLEVDPSDPRFLGSAGG [r13_682_TrMRF] | 2.38 ± 0.041
SAGGSAGMPSPVLLDVTIANPDGTTSTVTAPYASPEVAEAYVRENYPDAEVTYDPATGRVSVNVPSSAGGSA [r15_313_JUSTAS] | 2.31 ± 0.092
SMIKPDEVVEKIEFTFPDGVAGDTRTFPVPEGSVIVYIDLGEPVYVMEILEDGSVKIEPVPEEVAKELAKSA [r9_1144_TrMRF] | 0.37 ± 0.048
MEEIRDLPGIKWQPIERDGDRYYWMFTIPPEQFKNNGKPPVIVMAEFEPNGKWRITPWIRPWLRKLGIEPVS [r1_256_TrROS] | 1.92 ± 0.049
SAGGITIEWERNPDGYPNIKIQIRAPNGKKVAKLPIQFDPNDGGMTKLDLKKLLKEINLPPNVEVEFISAGG [r13_479_TrROS] | 1.45 ± 0.05
SAGGERKVKIEVMWNPDDPNYYMISVKFPGQERQFMIDPNDPERIIEFLEDLLGPGYKVDDIEIHPFRSAGG [r13_519_TrROS] | 1.562 ± 0.012
SAGGSAGGSAGGMVIVTFPDGSVREVEVLETEPDGTVVVAPPDRPVETLSGAGLTLTPVPSAGGSAGGSAGG [r7_823_JUSTAS] | 1.19 ± 0.071
SAGGSAGGSMPAGVLVTVTITITKPGKPETLDELDVTVAEGDLDALEEEFAEKYPGLEVTVVRSAGGSAGGS [r12_21_JUSTAS] | 0.818 ± 0.08
SAGGSAGGSAGGMKYTIKVTTTYPDGTVTEYTFPSSVSKEEIIKELPSDVVDITFTETASSAGGSAGGSAGG [r7_288_JUSTAS] | 2.17 ± 0.066
SAGGEDELRPITPEELKALFDRLAAAHGLESEILEVEEPEDVVIVTARIRHGDTVLEVTVAFPVAKDPSAGG [r13_652_TrMRF] | 2.65 ± 0.14
SAGGSPIKPITFEFPNIKVTVYRMPNKYIMVHIEFRENGEPYYLMITFKLDPDNKLKATSIGPMPPSAGGSA [r2_171_TrROS] | 2.69 ± 0.1
SAGGSSSASNISTNPTPLPEESVTVTASSDGVITVTITDPNGVPTTYTYNIPSGSIEEAIAEAISSSAGGSA [r2_298_JUSTAS] | 1.86 ± 0.059
